Substitutions are numbered along the chain they refer to. Numbers in names are those of the source.
T1: human FcγR2A 131H allotype (recombinant, extracellular domain only) (human, UniProt P12318 34-217)
T1 construct: extracellular domain; 131H allotype; Position 131 is the customary mature-protein numbering; also called FcyR2A (131H)
T1 sequence (looked up): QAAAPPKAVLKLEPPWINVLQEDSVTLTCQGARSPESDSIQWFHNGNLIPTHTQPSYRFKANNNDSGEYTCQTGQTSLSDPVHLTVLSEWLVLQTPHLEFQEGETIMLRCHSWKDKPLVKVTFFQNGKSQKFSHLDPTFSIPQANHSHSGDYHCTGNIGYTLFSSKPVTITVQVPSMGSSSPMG

T2: human FcγR2B (recombinant, extracellular domain only) (human, UniProt P31994 43-217)
T2 construct: extracellular domain; also called FcyR2B; FcgR2B
T2 sequence (looked up): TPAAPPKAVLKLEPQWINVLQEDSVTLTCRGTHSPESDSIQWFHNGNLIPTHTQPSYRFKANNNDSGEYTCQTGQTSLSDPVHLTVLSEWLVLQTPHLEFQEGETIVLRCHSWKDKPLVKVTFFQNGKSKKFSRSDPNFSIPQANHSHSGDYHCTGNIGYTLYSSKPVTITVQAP

T3: human FcγR2A 131R allotype (recombinant, extracellular domain only) (human, UniProt P12318 34-217)
T3 construct: extracellular domain; 131R allotype; Position 131 is the customary mature-protein numbering; also called FcyR2A (131R)
T3 sequence (looked up): T1 sequence (looked up) with H134R

B1: humCL19v1 hIgG1 L235N (antibody)
VH: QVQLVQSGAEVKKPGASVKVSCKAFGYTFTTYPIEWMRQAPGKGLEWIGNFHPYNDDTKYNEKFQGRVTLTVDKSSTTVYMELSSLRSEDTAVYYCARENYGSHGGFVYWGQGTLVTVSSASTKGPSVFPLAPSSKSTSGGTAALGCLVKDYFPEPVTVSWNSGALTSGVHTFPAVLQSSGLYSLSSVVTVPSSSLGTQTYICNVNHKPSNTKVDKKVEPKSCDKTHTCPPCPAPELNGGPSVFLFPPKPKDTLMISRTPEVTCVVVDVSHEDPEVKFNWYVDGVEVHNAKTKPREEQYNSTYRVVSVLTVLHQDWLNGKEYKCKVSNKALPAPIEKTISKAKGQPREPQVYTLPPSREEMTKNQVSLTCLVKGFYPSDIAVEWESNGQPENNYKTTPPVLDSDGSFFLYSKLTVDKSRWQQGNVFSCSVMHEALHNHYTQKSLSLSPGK
VL: ENQLTQSPSSLSASVGDRVTITCRASSSVISSYLHWYQQKPGKAPKLLIYSTSNLASGVPSRFSGSGSGTDYTLTISSLQPEDFATYYCQQYNSYPLTFGGGTKLEIKRTVAAPSVFIFPPSDEQLKSGTASVVCLLNNFYPREAKVQWKVDNALQSGNSQESVTEQDSKDSTYSLSSTLTLSKADYEKHKVYACEVTHQGLSSPVTKSFNRGEC
B2: humCL19v1 hIgG1 Y300N (antibody)
VH: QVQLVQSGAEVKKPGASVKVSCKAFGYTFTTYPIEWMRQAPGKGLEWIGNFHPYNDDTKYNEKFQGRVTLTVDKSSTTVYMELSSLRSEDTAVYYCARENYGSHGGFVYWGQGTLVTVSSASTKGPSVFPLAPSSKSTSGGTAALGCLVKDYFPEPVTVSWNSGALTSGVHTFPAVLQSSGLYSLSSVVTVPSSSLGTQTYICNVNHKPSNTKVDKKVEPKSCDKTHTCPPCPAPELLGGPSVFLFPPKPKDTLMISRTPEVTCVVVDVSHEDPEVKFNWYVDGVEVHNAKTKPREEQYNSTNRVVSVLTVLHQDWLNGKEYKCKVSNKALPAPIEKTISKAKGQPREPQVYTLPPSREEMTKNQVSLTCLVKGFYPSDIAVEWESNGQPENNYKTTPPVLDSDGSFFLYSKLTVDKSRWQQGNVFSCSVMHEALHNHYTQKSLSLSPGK
VL: B1 VL
B3: humCL19v1 hIgG1 S239I (antibody)
VH: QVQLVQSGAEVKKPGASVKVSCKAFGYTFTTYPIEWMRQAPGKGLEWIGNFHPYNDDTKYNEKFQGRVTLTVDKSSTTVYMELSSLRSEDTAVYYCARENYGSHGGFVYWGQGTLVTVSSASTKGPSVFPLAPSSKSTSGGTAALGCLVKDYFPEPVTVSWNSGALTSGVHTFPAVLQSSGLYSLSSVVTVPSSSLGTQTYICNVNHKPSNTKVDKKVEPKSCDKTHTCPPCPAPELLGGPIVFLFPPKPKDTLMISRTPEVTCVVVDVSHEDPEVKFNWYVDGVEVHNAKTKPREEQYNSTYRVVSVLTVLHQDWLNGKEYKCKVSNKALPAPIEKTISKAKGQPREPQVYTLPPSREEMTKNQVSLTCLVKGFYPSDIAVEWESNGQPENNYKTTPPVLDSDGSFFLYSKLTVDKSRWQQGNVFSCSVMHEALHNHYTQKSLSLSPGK
VL: B1 VL
B4: humCL19v1 hIgG1 S239V (antibody)
VH: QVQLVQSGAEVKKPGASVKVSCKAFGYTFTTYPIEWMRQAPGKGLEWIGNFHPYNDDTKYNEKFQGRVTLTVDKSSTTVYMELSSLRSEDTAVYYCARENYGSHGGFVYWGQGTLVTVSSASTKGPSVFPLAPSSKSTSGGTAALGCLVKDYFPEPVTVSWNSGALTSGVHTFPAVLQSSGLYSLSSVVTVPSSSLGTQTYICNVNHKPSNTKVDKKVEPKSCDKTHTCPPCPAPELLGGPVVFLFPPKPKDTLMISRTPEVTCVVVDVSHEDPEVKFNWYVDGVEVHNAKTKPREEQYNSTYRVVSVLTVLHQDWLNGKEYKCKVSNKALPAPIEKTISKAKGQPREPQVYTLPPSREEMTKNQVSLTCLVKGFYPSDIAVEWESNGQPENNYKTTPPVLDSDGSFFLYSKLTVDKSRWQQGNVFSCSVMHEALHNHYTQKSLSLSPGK
VL: B1 VL
B5: humCL19v1 hIgG1 V266M (antibody)
VH: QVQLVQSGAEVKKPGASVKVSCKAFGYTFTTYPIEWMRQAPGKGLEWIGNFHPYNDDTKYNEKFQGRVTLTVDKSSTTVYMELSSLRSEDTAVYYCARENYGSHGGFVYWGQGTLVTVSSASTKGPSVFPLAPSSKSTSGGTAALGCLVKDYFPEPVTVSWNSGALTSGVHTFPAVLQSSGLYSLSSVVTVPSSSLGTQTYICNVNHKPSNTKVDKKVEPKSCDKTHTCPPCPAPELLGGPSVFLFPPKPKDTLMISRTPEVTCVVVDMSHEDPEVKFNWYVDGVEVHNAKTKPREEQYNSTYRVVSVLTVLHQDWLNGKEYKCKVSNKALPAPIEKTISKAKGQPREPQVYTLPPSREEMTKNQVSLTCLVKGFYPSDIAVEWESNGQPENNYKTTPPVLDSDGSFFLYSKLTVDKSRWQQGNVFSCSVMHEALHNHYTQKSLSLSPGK
VL: B1 VL
B6: humCL19v1 hIgG1 L235H (antibody)
VH: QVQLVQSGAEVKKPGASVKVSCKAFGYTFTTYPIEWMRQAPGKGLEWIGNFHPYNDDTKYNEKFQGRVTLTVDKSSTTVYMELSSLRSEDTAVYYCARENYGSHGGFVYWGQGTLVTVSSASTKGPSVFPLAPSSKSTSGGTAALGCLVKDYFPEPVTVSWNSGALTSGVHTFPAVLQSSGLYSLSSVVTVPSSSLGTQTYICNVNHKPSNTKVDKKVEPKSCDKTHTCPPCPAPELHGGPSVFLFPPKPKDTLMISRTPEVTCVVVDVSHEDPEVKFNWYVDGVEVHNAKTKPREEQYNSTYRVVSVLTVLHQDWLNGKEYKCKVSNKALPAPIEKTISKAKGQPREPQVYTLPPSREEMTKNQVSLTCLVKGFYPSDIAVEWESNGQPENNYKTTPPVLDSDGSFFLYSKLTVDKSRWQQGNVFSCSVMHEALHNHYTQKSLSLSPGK
VL: B1 VL
B7: humCL19v1 P238D (antibody, human IgG1, kappa)
heavy: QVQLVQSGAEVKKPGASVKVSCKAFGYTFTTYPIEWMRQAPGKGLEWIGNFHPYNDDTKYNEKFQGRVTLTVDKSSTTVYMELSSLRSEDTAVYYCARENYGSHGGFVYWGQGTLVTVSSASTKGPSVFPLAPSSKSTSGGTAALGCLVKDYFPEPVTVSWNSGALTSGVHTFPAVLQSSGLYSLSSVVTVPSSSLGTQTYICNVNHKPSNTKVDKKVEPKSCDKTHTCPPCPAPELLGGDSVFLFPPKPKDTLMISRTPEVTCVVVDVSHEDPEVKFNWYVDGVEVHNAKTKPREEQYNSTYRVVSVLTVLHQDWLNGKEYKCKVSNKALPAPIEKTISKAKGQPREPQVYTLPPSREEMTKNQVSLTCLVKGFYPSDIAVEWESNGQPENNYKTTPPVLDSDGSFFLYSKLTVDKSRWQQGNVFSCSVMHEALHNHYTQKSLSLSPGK
light: B1 VL
notes: That makes them humCL19v1 P238D; also called hIgG1 P238D; P238D mutated humCL19v1

Each binder was assayed against T1, human FcγR2A 131H allotype … (assay: SPR (Biacore 8K), 37 C, steady state; antibody captured on immobilised human PD-1 ECD, FcR ECD as analyte).
Method: (§1) The interactions were assessed by surface plasmon resonance using a Biacore 8 K with the recombinantly expressed FcRs (extracellular domains only) as analyte. Briefly, recombinant human PD-1 extracellular domain was covalently immobilized to both flow cells of all channels of a CM5 Series S sensor chip using the GE Healthcare Amine coupling kit. […] Steady state affinity analysis was then performed by injecting varying concentrations of FcR and measuring equilibrium binding. Double referencing was used (subtracting the signal in the reference Fc1 and also subtracting the signal from a blank zero concentration injection). KD values were calculated from the Langmuir curves (plotting equilibrium binding against analyte concentration to determine the concentration required for half maximal binding).

| Kd [nM] | Binder |
| --- | --- |
| 13.5 | B1 |
| 2.83 | B2 |
| 3.38 | B3 |
| 3.13 | B4 |
| 6.28 | B5 |
| 3.96 | B6 |
| 90.3 | B7 |

Each binder was assayed against T2, human FcγR2B (recombinant, …) in the same assay as above.
Method: as §1

| Kd [nM] | Binder |
| --- | --- |
| 59 | B1 |
| 6.32 | B2 |
| 3.99 | B3 |
| 3.6 | B4 |
| 1.54 | B5 |
| 13.6 | B6 |
| 2.79 | B7 |

The binders below were run against T3, human FcγR2A 131R allotype … in the same assay as above.
Method: as §1

| Kd [nM] | Binder |
| --- | --- |
| 12.3 | B1 |
| 2.22 | B2 |
| 1.65 | B3 |
| 1.62 | B4 |
| 0.58 | B5 |
| 3.67 | B6 |
| 17.5 | B7 |
